# According to PMC12462484:
# What was measured:
# [1] = target: wild-type KSHV ORF74 expressed in HEK293T cells (Kaposi's Sarcoma-associated Herpesvirus (HHV-8)) (UniProt Q98146)
# [2] = target: KSHV ORF74 with L169W, L258V and two C-terminal threonines deleted (apo construct) (Kaposi's Sarcoma-associated Herpesvirus (HHV-8)) (UniProt Q98146); experiment: cryo-EM structure
Substance,"BRET2 (TRUPATH) G protein activation in HEK293T cells, Rluc8-Gαq / Gβ / GFP2-Gγ sensor, dose response to recombinant CXCL1: potency of CXCL1 [1] [pEC50]",stoichiometry N [2]
"Gαq subunit (Rluc8-fused, TRUPATH) (from UniProt P50148 1-359) (natural protein)",6.7,
"KSHV ORF74 with L169W, L258V and two C-terminal threonines deleted (apo construct) (from UniProt Q98146 1-340) (receptor)",,2
